{"source": "paper doi:10.1101/2024.10.01.615909", "about": "(bioRxiv, 2024)", "binders": {"B1": {"name": "His8-SUMO (HS)-IQD2 (natural protein)", "chain": "MGKKAKWFSSVKKAFSPDSKKSKQKLAEGQNGVISNPPVVDNVRQSSSSPPPALAPREVRVAEVIVERNRDLSPPSTADAVNVTATDVPVVPSSSAPGVVRRATPTRFAGKSNEEAAAILIQTIFRGYLARRALRAMRGLVRLKLLMEGSVVKRQAANTLKCMQTLSRVQSQIRARRIRMSEENQARQKQLLQKHAKELAGLKNGDNWNDSIQSKEKVEANLLSKYEATMRRERALAYSYSHQQNWKNNSKSGNPMFMDPSNPTWGWSWLERWMAGRPLESSEKEQSNSNNDNAASVKGSINRNEAAKSLTRNGSTQPNTPSSARGTPRNKNSFFSPPTPSRLNQSSRKSNDDDSKSTISVLSERNRRHSIAGSSVRDDESLAGSPALPSYMVPTKSARARLKPQSPLGGTTQENEGFTDKASAKKRLSYPTSPALPKPRRFSAPPKVESGGVTVTNGAGS"}}, "target": "T1, S-tag-KLCR1 (Arabidopsis thaliana, UniProt O81629 1-609)", "T1 sequence": "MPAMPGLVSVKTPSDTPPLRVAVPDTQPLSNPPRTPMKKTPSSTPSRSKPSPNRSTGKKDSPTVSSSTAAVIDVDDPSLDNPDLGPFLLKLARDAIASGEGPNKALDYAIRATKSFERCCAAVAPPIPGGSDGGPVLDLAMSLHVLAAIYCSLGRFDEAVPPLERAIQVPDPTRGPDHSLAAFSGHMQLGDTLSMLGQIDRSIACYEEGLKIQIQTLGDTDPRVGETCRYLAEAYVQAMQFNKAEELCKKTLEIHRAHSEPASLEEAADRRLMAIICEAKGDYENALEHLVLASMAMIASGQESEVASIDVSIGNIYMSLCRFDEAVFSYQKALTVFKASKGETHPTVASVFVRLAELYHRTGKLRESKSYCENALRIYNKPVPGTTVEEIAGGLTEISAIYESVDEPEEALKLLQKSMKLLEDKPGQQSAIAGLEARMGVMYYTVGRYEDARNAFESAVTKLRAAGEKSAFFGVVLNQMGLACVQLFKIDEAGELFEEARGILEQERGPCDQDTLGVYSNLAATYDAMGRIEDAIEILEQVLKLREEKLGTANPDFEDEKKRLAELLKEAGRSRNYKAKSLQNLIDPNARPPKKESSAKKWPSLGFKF", "assay": "co-sedimentation", "data": [{"binder": "B1", "values": [{"measurement": "binding result", "value": "binds"}]}]}
